# In the supplement of paper PMC9112550, “Optimization of the antimicrobial peptide Bac7 by deep mutational scanning” (BMC Biology, 2022):
# Test system: Escherichia coli TOP10
# Assay: shrunken log2 fold change of peptide-encoding DNA abundance (4.5 h post-induction vs induction); higher = less antimicrobial activity (less host growth inhibition)
# Conditions: time post-induction: 4.5 h; library: site-saturation at positions 5, 18, 19, 20
# 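Note: peptides expressed intracellularly from a pBAD plasmid library in pooled LB shake-flask culture, induced with 0.3% L-arabinose, DNA abundance read by NGS, three biological replicates, DESeq2 with apeglm shrinkage.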
row,Sequence,shrunken log2 fold change
1,RRIRPRPPRLPRPRPRPGNYPRP,-0.36
2,RRIRHRPPRLPRPRPRPHIFPRP,-0.308
3,RRIRARPPRLPRPRPRPNMRPRP,0.25
4,RRIRHRPPRLPRPRPRPTVSPRP,-0.0706
5,RRIRRRPPRLPRPRPRPGDIPRP,0.0886
6,RRIRSRPPRLPRPRPRPFLNPRP,-1.03
7,RRIRSRPPRLPRPRPRPVDNPRP,-0.493
8,RRIRGRPPRLPRPRPRPKESPRP,0.981
9,RRIRYRPPRLPRPRPRPSDFPRP,-1.03
10,RRIRHRPPRLPRPRPRPCYMPRP,-0.494
11,RRIRVRPPRLPRPRPRPKRSPRP,0.112
12,RRIRRRPPRLPRPRPRPIMVPRP,-0.371
13,RRIRWRPPRLPRPRPRPDYNPRP,-0.288
14,RRIRIRPPRLPRPRPRPQNTPRP,-0.86
15,RRIRTRPPRLPRPRPRPNTVPRP,-0.305
16,RRIRTRPPRLPRPRPRPETEPRP,-0.016
17,RRIRIRPPRLPRPRPRPMHHPRP,-0.4
18,RRIRKRPPRLPRPRPRPRISPRP,-0.258
19,RRIRFRPPRLPRPRPRPPHMPRP,-0.137
20,RRIRFRPPRLPRPRPRPQGCPRP,-0.13
21,RRIRIRPPRLPRPRPRPHNKPRP,-0.976
22,RRIRMRPPRLPRPRPRPNWYPRP,-0.0601
23,RRIRSRPPRLPRPRPRPWSPPRP,-0.1
24,RRIRPRPPRLPRPRPRPRSFPRP,0.0582
25,RRIRVRPPRLPRPRPRPTESPRP,-0.00266

row,Sequence,shrunken log2 fold change
1,RRIRNRPPRLPRPRPRPKNNPRP,-0.407
2,RRIRDRPPRLPRPRPRPLWNPRP,0.0619
3,RRIRSRPPRLPRPRPRPMYWPRP,-0.134
4,RRIRARPPRLPRPRPRPTHHPRP,0.468
5,RRIRVRPPRLPRPRPRPVSAPRP,-0.141
6,RRIRRRPPRLPRPRPRPDYEPRP,-0.115
7,RRIRMRPPRLPRPRPRPAYAPRP,0.0769
8,RRIRWRPPRLPRPRPRPSCGPRP,0.0847
9,RRIRNRPPRLPRPRPRPGWLPRP,0.174
10,RRIRHRPPRLPRPRPRPDYIPRP,-0.0135
11,RRIRKRPPRLPRPRPRPNQWPRP,0.274
12,RRIRARPPRLPRPRPRPYKEPRP,-0.423
13,RRIRRRPPRLPRPRPRPWNTPRP,-0.214
14,RRIRQRPPRLPRPRPRPFPDPRP,-0.108
15,RRIRARPPRLPRPRPRPYWEPRP,-0.312
16,RRIRRRPPRLPRPRPRPAFSPRP,-0.00711
17,RRIRSRPPRLPRPRPRPKSRPRP,-0.0201
18,RRIRSRPPRLPRPRPRPHRYPRP,-0.606
19,RRIRGRPPRLPRPRPRPEPNPRP,1.42
20,RRIRKRPPRLPRPRPRPESKPRP,0.727
21,RRIRCRPPRLPRPRPRPSDLPRP,-0.0943
22,RRIRDRPPRLPRPRPRPCHFPRP,-0.105
23,RRIRCRPPRLPRPRPRPSFCPRP,-0.559
24,RRIRCRPPRLPRPRPRPPKIPRP,0.277
25,RRIRERPPRLPRPRPRPLPYPRP,-0.345

row,Sequence,shrunken log2 fold change
1,RRIRERPPRLPRPRPRPIKWPRP,-0.0383
2,RRIRERPPRLPRPRPRPETHPRP,0.178
3,RRIRFRPPRLPRPRPRPIQPPRP,0.137
4,RRIRCRPPRLPRPRPRPRGNPRP,0.0747
5,RRIRPRPPRLPRPRPRPGYEPRP,-0.172
6,RRIRLRPPRLPRPRPRPPVFPRP,0.0392
7,RRIRWRPPRLPRPRPRPVANPRP,0.0636
8,RRIRMRPPRLPRPRPRPGSFPRP,1.04
9,RRIRERPPRLPRPRPRPNRRPRP,-0.0103
10,RRIRKRPPRLPRPRPRPMESPRP,0.0143
11,RRIRCRPPRLPRPRPRPTPVPRP,0.714
12,RRIRCRPPRLPRPRPRPETWPRP,0.203
13,RRIRCRPPRLPRPRPRPNMKPRP,-0.769
14,RRIRPRPPRLPRPRPRPGLPPRP,0.0398
15,RRIRRRPPRLPRPRPRPGFDPRP,0.289
16,RRIRYRPPRLPRPRPRPMMMPRP,-0.497
17,RRIRMRPPRLPRPRPRPDHMPRP,0.0296
18,RRIRWRPPRLPRPRPRPQEVPRP,-0.0144
19,RRIRDRPPRLPRPRPRPCSHPRP,-0.0198
20,RRIRQRPPRLPRPRPRPIEKPRP,0.0125
21,RRIRDRPPRLPRPRPRPWKIPRP,0.0112
22,RRIRKRPPRLPRPRPRPSWIPRP,-0.487
23,RRIRIRPPRLPRPRPRPERHPRP,0.0733
24,RRIRVRPPRLPRPRPRPMRTPRP,-0.0139
25,RRIRVRPPRLPRPRPRPRRCPRP,-0.0137

row,Sequence,shrunken log2 fold change
1,RRIRSRPPRLPRPRPRPSCCPRP,-0.102
2,RRIRYRPPRLPRPRPRPAAGPRP,-0.197
3,RRIRARPPRLPRPRPRPYRYPRP,-0.274
4,RRIRHRPPRLPRPRPRPKHAPRP,0.126
5,RRIRDRPPRLPRPRPRPQNTPRP,-0.605
6,RRIRQRPPRLPRPRPRPNVWPRP,0.134
7,RRIRVRPPRLPRPRPRPLKVPRP,-0.136
8,RRIRKRPPRLPRPRPRPKEGPRP,0.0503
9,RRIRWRPPRLPRPRPRPCEMPRP,0.0732
10,RRIRCRPPRLPRPRPRPDVSPRP,-0.185
11,RRIRYRPPRLPRPRPRPAMMPRP,0.0997
12,RRIRWRPPRLPRPRPRPCHYPRP,-0.0893
13,RRIRLRPPRLPRPRPRPVLDPRP,-0.366
14,RRIRNRPPRLPRPRPRPETVPRP,-0.00716
15,RRIRERPPRLPRPRPRPKPRPRP,0.467
16,RRIRTRPPRLPRPRPRPHMMPRP,-0.586
17,RRIRQRPPRLPRPRPRPFYDPRP,-0.208
18,RRIRWRPPRLPRPRPRPGSHPRP,0.0507
19,RRIRTRPPRLPRPRPRPMDPPRP,-0.107
20,RRIRCRPPRLPRPRPRPNFHPRP,-0.259
21,RRIRFRPPRLPRPRPRPKRFPRP,0.0111
22,RRIRRRPPRLPRPRPRPTNEPRP,0.0166
23,RRIRWRPPRLPRPRPRPKPGPRP,0.34
24,RRIRFRPPRLPRPRPRPKHVPRP,-0.0891
25,RRIRNRPPRLPRPRPRPLNFPRP,-0.71

row,Sequence,shrunken log2 fold change
1,RRIRFRPPRLPRPRPRPYTDPRP,-0.233
2,RRIRFRPPRLPRPRPRPGSYPRP,-0.0318
3,RRIRERPPRLPRPRPRPTKAPRP,0.043
4,RRIRARPPRLPRPRPRPANSPRP,0.329
5,RRIRLRPPRLPRPRPRPRWIPRP,-0.074
6,RRIRVRPPRLPRPRPRPKWMPRP,-0.0468
7,RRIRERPPRLPRPRPRPFCSPRP,-0.204
8,RRIRARPPRLPRPRPRPRIVPRP,0.547
9,RRIRYRPPRLPRPRPRPKGFPRP,-0.0319
10,RRIRSRPPRLPRPRPRPQRQPRP,0.116
11,RRIRGRPPRLPRPRPRPDKKPRP,0.878
12,RRIRWRPPRLPRPRPRPWIWPRP,0.0705
13,RRIRERPPRLPRPRPRPYQNPRP,-0.0789
14,RRIRFRPPRLPRPRPRPPIIPRP,0.92
15,RRIRGRPPRLPRPRPRPDNNPRP,0.388
16,RRIRYRPPRLPRPRPRPRMMPRP,0.0163
17,RRIRRRPPRLPRPRPRPKYDPRP,-0.466
18,RRIRYRPPRLPRPRPRPSEPPRP,-0.205
19,RRIRSRPPRLPRPRPRPANQPRP,-0.116
20,RRIRPRPPRLPRPRPRPNRCPRP,0.0358
21,RRIRERPPRLPRPRPRPLKLPRP,-0.118
22,RRIRCRPPRLPRPRPRPWVVPRP,-0.168
23,RRIRVRPPRLPRPRPRPTEGPRP,0.0116
24,RRIRDRPPRLPRPRPRPNKQPRP,-0.0169
25,RRIRQRPPRLPRPRPRPEAFPRP,0.127

row,Sequence,shrunken log2 fold change
1,RRIRWRPPRLPRPRPRPEGDPRP,0.166
2,RRIRKRPPRLPRPRPRPHPYPRP,-0.0228
3,RRIRNRPPRLPRPRPRPERVPRP,0.11
4,RRIRMRPPRLPRPRPRPHWTPRP,-0.106
5,RRIRNRPPRLPRPRPRPKVAPRP,0.0368
6,RRIRYRPPRLPRPRPRPMVKPRP,-0.574
7,RRIRSRPPRLPRPRPRPVNHPRP,-0.462
8,RRIRIRPPRLPRPRPRPQNPPRP,-0.38
9,RRIRMRPPRLPRPRPRPAAYPRP,0.206
10,RRIRWRPPRLPRPRPRPQHKPRP,-0.0725
11,RRIRDRPPRLPRPRPRPMWLPRP,0.015
12,RRIRKRPPRLPRPRPRPIMRPRP,-0.00968
13,RRIRQRPPRLPRPRPRPMEFPRP,0.0663
14,RRIRDRPPRLPRPRPRPPTQPRP,0.285
15,RRIRERPPRLPRPRPRPYRKPRP,-0.264
16,RRIRDRPPRLPRPRPRPPSAPRP,0.506
17,RRIRSRPPRLPRPRPRPRMDPRP,-0.291
18,RRIRERPPRLPRPRPRPSSKPRP,-0.639
19,RRIRTRPPRLPRPRPRPRFFPRP,0.0438
20,RRIRSRPPRLPRPRPRPSMQPRP,-0.242
21,RRIRVRPPRLPRPRPRPCSSPRP,-0.201
22,RRIRWRPPRLPRPRPRPAFNPRP,-0.116
23,RRIRYRPPRLPRPRPRPIIFPRP,0.0131
24,RRIRRRPPRLPRPRPRPYAFPRP,0.0067
25,RRIRIRPPRLPRPRPRPPQLPRP,-0.122
